Measurements from patent US20230416410A1.
Residue numbers refer to the chain shown, from its start. Values belong to the binder of their own block, whether it stands above or below them.

Experiments:
[1] = biological target: recombinant bovine FcRn (bovine) (UniProt F6R592); test: SPR Biacore, bFcRn on SA sensor, pH 6, 25 C
[2] = biological target: recombinant bovine FcRn (bovine) (UniProt F6R592); test: SPR Biacore, bFcRn, pH 6; against bIgG3a wildtype mAb
[3] = biological target: recombinant bovine Fcg2R (bovine); test: SPR Biacore, bFcg2R amine-coupled on CM5; against bIgG2a wildtype mAb
recombinant bovine Fcg2R (bovine), sequence (main, as listed by the source): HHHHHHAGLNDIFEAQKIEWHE

[4] = biological target: recombinant bovine Fcg2R (bovine); test: SPR Biacore, bFcg2R amine-coupled on CM5, pH 7.4, 15 C

recombinant bovine FcRn (bovine), sequence (chain, as listed by the source, chain 1 of 2): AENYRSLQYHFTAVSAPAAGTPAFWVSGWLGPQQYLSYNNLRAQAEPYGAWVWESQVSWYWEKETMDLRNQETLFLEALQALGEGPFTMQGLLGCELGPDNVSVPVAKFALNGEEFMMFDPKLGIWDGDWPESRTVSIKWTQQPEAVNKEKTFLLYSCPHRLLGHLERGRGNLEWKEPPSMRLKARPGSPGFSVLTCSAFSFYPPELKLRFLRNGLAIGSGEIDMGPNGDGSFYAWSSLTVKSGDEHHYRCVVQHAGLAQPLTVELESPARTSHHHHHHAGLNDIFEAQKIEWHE
recombinant bovine FcRn (bovine), sequence (P01888 21-118, chain 2 of 2): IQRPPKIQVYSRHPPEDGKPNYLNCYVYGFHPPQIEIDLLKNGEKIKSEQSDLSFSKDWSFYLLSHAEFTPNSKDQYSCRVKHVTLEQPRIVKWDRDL

Kd [1]: 30.2 nM
B1: bIgG3a wildtype mAb (antibody, part only; not given: variable domains, not shown: another chain or arm of the molecule)
constant: ASTTAPKVYPLASSCGDTSSSTVTLGCLVSSYMPEPVTVTWNSGALKSGVHTFPAVRQSSGLYSLSSMVTVPASSSETQTFTCNVAHPASSTKVDKAVTARRPVPTTPKTTIPPGKPTTPKSEVEKTPCQCSKCPEPLGGLSVFIFPPKPKDTLTISGTPEVTCVVVDVGQDDPEVQFSWFVDDVEVHTARTKPREEQFNSTYRVVSALRIQHQDWLQGKEFKCKVNNKGLPAPIVRTISRTKGQAREPQVYVLAPPREELSKSTLSLTCLITGFYPEEIDVEWQRNGQPESEDKYHTTAPQLDADGSYFLYSKLRVNKSSWQEGDHYTCAVMHEALRNHYKEKSISRSPGK

fold higher affinity than bIgG3a wildtype [2]: 5 fold
Kd [1]: 9.14 nM
B2: bIgG3a_R433H mutant mAb (antibody, part only; not given: variable domains, not shown: another chain or arm of the molecule)
constant: B1 constant with R338H

Kd [1]: 31.4 nM
B3: bIgG1a mAb (antibody, part only; not given: variable domains, not shown: another chain or arm of the molecule)
constant: ASTTAPKVYPLSSCCGDKSSSTVTLGCLVSSYMPEPVTVTWNSGALKSGVHTFPAVLQSSGLYSLSSMVTVPGSTSGTQTFTCNVAHPASSTKVDKAVDPRCKTTCDCCPPPELPGGPSVFIFPPKPKDTLTISGTPEVTCVVVDVGHDDPEVKFSWFVDDVEVNTATTKPREEQFNSTYRVVSALRIQHQDWTGGKEFKCKVHNEGLPAPIVRTISRTKGPAREPQVYVLAPPQEELSKSTVSLTCMVTSFYPDYIAVEWQRNGQPESEDKYGTTPPQLDADGSYFLYSRLRVDRNSWQEGDTYTCVVMHEALHNHYTQKSTSKSAGK

Kd [1]: 0.579 nM
B4: bIgG2a_L432A mAb (antibody, part only; not given: variable domains, not shown: another chain or arm of the molecule)
constant: ASTTAPKVYPLTSCCGDKSSSRVTLGCLVSSYMPEPVTVTWNSGALKSGVHTFPAVLQSSGLYSLSSMVTVPGSSSGQTFTCNVAHPASSTKVDKAVGVSSDCSKPNNQHCVREPSVFIFPPKPKDTLMITGTPEVTCVVVNVGHDNPEVQFSWFVDDVEVHTARTKPREEQFNSTYRVVSALPIQHQDWTGGKEFKCKVNIKGLSASIVRIISRSKGPAREPQVYVLDPPKEELSKSTVSVTCMVIGFYPEDVDVEWQRDRQTESEDKYRTTPPQLDADRSYFLYSKLRVDRNSWQRGDTYTCVVMHEAAHNHYMQKSTSKSAGK

Kd [1]: 1.04 nM
B5: bIgG2a_N434A mAb (antibody, part only; not given: variable domains, not shown: another chain or arm of the molecule)
constant: B4 constant with A311L, N313A

Kd [1]: 6.96 nM
B6: bIgG2a_L432A_N434A_M437A mAb (antibody, part only; not given: variable domains, not shown: another chain or arm of the molecule)
constant: B4 constant with N313A, M316A

Kd [1]: 3.03 nM
B7: bIgG2a_L432A_M437A mAb (antibody, part only; not given: variable domains, not shown: another chain or arm of the molecule)
constant: B4 constant with M316A

Fcg2R KD reduction from WT [3]: 4 fold
Kd [4]: 59.3 nM
Kd [1]: 1.7 nM
B8: bIgG2a_L432A_N434A mAb (antibody, part only; not given: variable domains, not shown: another chain or arm of the molecule)
constant: B4 constant with N313A

Kd [1]: 0.59 nM
B9: bIgG2a_M437A mAb (antibody, part only; not given: variable domains, not shown: another chain or arm of the molecule)
constant: B4 constant with A311L, M316A

Kd [1]: 2.31 nM
B10: bIgG2a_N434A_M437A mAb (antibody, part only; not given: variable domains, not shown: another chain or arm of the molecule)
constant: B4 constant with A311L, N313A, M316A
